Test results as given in patent publication US20260285972 (published 2026).

T1: recombinant human GPRC5D-Flag-His (human, UniProt Q9NZD1)
T1 chain: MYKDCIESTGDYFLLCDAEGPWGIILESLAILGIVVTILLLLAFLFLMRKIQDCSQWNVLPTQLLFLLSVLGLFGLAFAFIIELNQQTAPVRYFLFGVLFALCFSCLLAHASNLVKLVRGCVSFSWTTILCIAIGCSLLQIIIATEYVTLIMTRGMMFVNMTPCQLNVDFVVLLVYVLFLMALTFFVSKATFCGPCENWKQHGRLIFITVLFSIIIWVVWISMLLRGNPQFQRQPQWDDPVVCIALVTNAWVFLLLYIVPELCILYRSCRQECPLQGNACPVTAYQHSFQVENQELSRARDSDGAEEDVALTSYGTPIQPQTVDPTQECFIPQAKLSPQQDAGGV


Target: T1, recombinant human GPRC5D-Flag-His
Test: BLI

Row | Kd | Binder
1 | 25.6 nM | 22Mono3L7F (antibody, V domains shown, Flag-His tag, ACRO GPD-H52D3) VH: EVTLKESGPVLVKPTETLTLTCTASGYPFTNYWMHWVRQPPGKALEWIGEINPSNGRTNYNEKFKSRATLSLDKSKSQAVLTMTNMDPVDTATYYCARGFAYWGQGTLVTVSS VL: EIVLTQSPATLSLSPGERATLSCSASSSVSFMHWYQQKPGQAPRRWIYDTTKLASGIPARFSGSGSGTDYTLTISSLEPEDFAVYYCQQWNSHPLTFGQGTKLEIK
2 | 16.9 nM | 22Mono4DN4 (antibody, V domains shown, Flag-His tag, ACRO GPD-H52D3) VH: ELVQSGAEVKKPGSSVKVSCKASGYPFTNYWMHWVRQAPGQGLEWIGEINPSNGRTNYNEKFKSRATLTLDKSTSTAYMELSSLRSEDTAVYYCARGFAYWGQGTLVTVSS VL: EIVLTQSPATLSLSPGERATLSCSASSSVSFMHWYQQKPGQAPRRWIYDTTKLASGVPARFSGSGSGTDYTLTISSLEPEDFAVYYCQQWNSHPLTFGQGTKVEIK
3 | 0.787 nM | 22Mono5JO4 (antibody, V domains shown, Flag-His tag, ACRO GPD-H52D3) VH: QVQLVQSGAEVKKPGSSVKVSCRASGYPFTNYWMHWVRQAPGQGLEWIGEINPSNGRTNYNEKFKSRATLTLDKLTSTAYMELSSLTSEDTALYYCARGFAYWGQGTLVTVSS VL: EIVLTQSPGTLSLSPGERATLSCSASSSVSFMHWYQQKPGQAPRRWIYDTTKLASGIPDRFSGSGSGTDYTLTISRLEPEDFAVYYCQQWNSHPLTFGQGTTVEIK
4 | 5.67 nM | 22Mono5UQY (antibody, V domains shown, Flag-His tag, ACRO GPD-H52D3) VH: QVQLQESGPGLVKPSETLSLTCTASGYPFTNYWMHWVRQPPGKGLEWIGEINPSNGRTNYNEKFKSRATLSLDKSKNQASLNLDSVSAADTAIYYCARGFAYWGKGSTVTVSS VL: AIQLTQSPSSLSASVGDRVTITCSASSSVSFMHWYQQKPGKAPKRWIYDTTKLASGVPSRFSGSGSGTDYTFTISSLQPEDIATYYCQQWNSHPLTFGPGTKVDIK
